Paper PMC11172241, “Insight into the Mechanism of Lysogeny Control of phiCDKH01 Bacteriophage Infecting Clinical Isolate of Clostridioides difficile”

B1: BIND (minimal XRE-binding fragment) (dsDNA)
DNA 1: TTACAATTAAAATTGCCAAAAAAGCAACAA
DNA 2: TTGTTGCTTTTTTGGCAATTTTAATTGTAA

Experiments:
[1] = tested on: T1, phiCDKH01 XRE family repressor (XRE-His) (Clostridioides difficile phage phiCDKH01 (host strain CD34/Sr)), UPI000235AC6A; test: EMSA; conditions: 50 mM Tris-HCl pH 7.5, 50 mM NaCl, 200 mM KCl, 50 mM MgCl2, 5 mM EDTA, 5 mM DTT, 0.25 mg/mL BSA, 15 min, room temperature, 0.1 pmol DNA, 0-200 ng protein
T1 sequence: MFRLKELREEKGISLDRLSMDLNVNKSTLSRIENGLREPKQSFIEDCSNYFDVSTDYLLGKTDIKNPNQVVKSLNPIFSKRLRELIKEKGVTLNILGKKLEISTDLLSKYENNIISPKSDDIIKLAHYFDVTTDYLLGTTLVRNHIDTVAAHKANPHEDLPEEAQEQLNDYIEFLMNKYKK

[2] = biological target: T2, phiCDKH01 XRE family repressor (XRE-His) (Clostridioides difficile phage …, UniProt UPI000235AC6A 1-181); test: EMSA; 50 mM Tris-HCl pH 7.5, 50 mM NaCl, 200 mM KCl, 50 mM MgCl2, 5 mM EDTA, 5 mM DTT, 0.25 mg/mL BSA, 15 min, room temperature; 0.1 pmol DNA, 0-200 ng protein; 5% TBE gel; conditions: protein: recombinant; tag encoded at 3' end by primer S4); chain copies: 2; blunt
T2 sequence: T1 sequence

| Molecule | binding [1] | binding result [2] |
| --- | --- | --- |
| CATTATAGCAACTTTTATTTACATTATAGCAACTTTTTTTGTTATTACAATTAAAATTGCCAAAAAAGCAACAAAAATATTGACTTTTAACATTTTTGTTGCTATTATATAA (double strand) [S2] | binds | – |
| GCAACTTTTTTTGTTATTACAATTAAAATTGCCAAAAAAGCAACAAAAATATTGACTTTTAACATTTTTGTTGCTATTATATAAACAAGAACTTGCTTATATAGCAAAAAGTTAGAGGGTGA (double strand) [S3 (Methods text says S4)] | binds | – |
| GTTGCTATAATGTAAATAAAAGTTGCTATAATGAAAACTACAATAAAGGATGATTTTATATGTTTAGATTAAAAGAACTGAGAGAAG (double strand) [S1] | binds | – |
| B1 | – | binds |
